Series [1] is described as follows: Heat stability of protein structure (soluble protein after heating, SDS-PAGE). The format is physicochemical. To be noted: heated for 20 minutes. As for the experimental part: 3-8) Heat Stability of HALU TM2 Protein Structure Each of 0.2 μg/μL TM2 mutant solutions (10 μL (2 μg)) was heated at room temperature, 50, 60, 70, 80, 90, or 99° C. for 20 minutes. Then, the solution was centrifuged at 15000 rpm for 10 minutes, and the soluble protein in the supernatant was suspended in the same volume of 2×SDS sample buffer (250 mM Tris-HCl, pH 6.8, 20% 2-mercaptoethanol, 20% SDS, 20% glycerol). The suspension was heated at 95° C. for 10 minutes, followed by SDS-PAGE. The protein bands were detected by CBB staining A standard curve was prepared using a quantitative marker (LMW ELECTROPHORESIS CALIBRATION KIT; Pharmacia Biotech) with Las-3000 (FUJIFILM) to quantify the protein bands.

In another series the test system is Salmon sperm DNA. The series can be described thus: Non-specific binding to DNA (membrane-adsorbed DNA, biotinylated HRP, ECL). To be noted: salmon sperm DNA 10 μg to 1 μg on membrane, 25 μg/mL protein. Here is the method:
Salmon sperm DNA diluted stepwise from 10 μg to 1 μg with 2×SSC buffer was denatured with an alkali and was adsorbed to Hybond N+membrane (Amersham Biosciences) using Bio-Dot SF (BIO-RAD). After blocking the membrane with 5×Denhardt's solution (0.1% BSA, 0.1% ficoll, 0.1% polyvinylpyrrolidone), the membrane was immersed in 25 μg/mL of low-pI TM2 or the wild-type TM2 at room temperature for 90 minutes. Then, the membrane was washed with a TUBS buffer (TBS buffer containing 0.05% Tween 20) at room temperature for 5 minutes three times. The membrane was blocked with a TBS buffer containing 3% skimmed milk and 0.1% Tween 20 for 1 hour. The membrane was subjected to a reaction with biotinylated horseradise peroxidase (Vector) diluted 5000 times with a TBS buffer containing 3% skimmed milk and 0.1% Tween 20 at room temperature for 1 hour. The membrane was washed with a TBS buffer containing 0.1% Tween 20 again and was then shaken in a solution that is a mixture of reagent 1 and reagent 2 of ECL (Amasham) in the same volumes, followed by detection of the luminol reaction with Las-3000 (FUJIFILM).
The non-specific binding of HALU TM2 to DNA was analyzed by the process in paragraph 1-11) of Example 1.

The nature of series [2]: Isoelectric focusing electrophoresis (pI observed). The format is physicochemical. To be noted: pH 3 to 10 gel. As for the experimental part:
The isoelectric point of each low-pI TM2 was measured by isoelectric focusing electrophoresis using an XCell SureLock Mini-Cell (Invitrogen). In accordance with the instruction, each low-pI TM2 (500 ng) and an IEF sample buffer (pH 3 to 10 (2×), Invitrogen) were mixed and were added to a polyacrylamide gel (pH 3 to 10, IEF Gel, Invitrogen) at a pH ranging from 3 to 10, followed by electrophoresis at a variable voltage of 100 V for 1 hour, 200 V for 1 hour, and 500 V for 45 minutes in this order.
After the electrophoresis, the gel was shaken in a blotting buffer (0.7% acetic acid) for 10 minutes and then was transferred onto a PVDF membrane at 10 V for 1 hour using an XCell ll Blot Module (Invitrogen). The PVDF membrane was subjected to reaction with anti-TM2 rabbit antibody (PCT/W2006/326260) serving as a primary antibody and with alkaline phosphate-labeled anti-rabbit IgG antibody (BIO-RAD) serving as a secondary antibody, followed by detection of bands with Alkaline Phosphatase Substrate Kit II
The isoelectric point of the high-affinity TM2 was measured by isoelectric focusing electrophoresis using an XCell SureLock Mini-Cell (Invitrogen). […] The electric point of TM2 D40N having replacement of the […] amino acid was higher than that of the wild type TM2 also in the isoelectric focusing electrophoresis.
The isoelectric point of HALU TM2 was measured by isoelectric focusing electrophoresis using an XCell SureLock Mini-Cell (Invitrogen). In accordance with the instruction, bands of each HALU TM2 (4 μg) were detected by CBB staining. […] The observed isoelectric point of TM2 D40N was 9.7, and was reduced to 8.9 after introduction of mutation of R104E and was reduced to 7.3 to 7.5 after further introduction of mutation of K141E.

The test system of series [3] is human serum protein. The series can be described thus: Non-specific adsorption of low-pI TM2 to human serum protein-immobilized magnetic beads. The format is binding. Here is the method: In this embodiment, non-specific binding to human serum was investigated as non-specific adsorption of low-pI TM2 to serum protein-immobilized magnetic beads. Specifically, in order to investigate the non-specific binding of low-pI TM2, the amount of low-pI TM2 adsorbed to magnetic beads to which human serum protein was covalently bonded was measured. TM2 K26A, TM2 K73Q, TM2 R104E, TM2 K141E, and TM2 R104EK141E, which were highly expressed in Escherichia coli, were used as the low-pI TM2 to be investigated.
Human serum protein and magnetic beads were bound to each other as follows. Magnetic beads having surfaces coated with carboxyl groups (Dynabeads M-270 Carboxylic Acid, Dynal, 210 μL) were washed with 0.01 N sodium hydroxide (210 μL) for 10 minutes and then with ultrapure water (210 μL) for 10 minutes three times. To the washed magnetic beads, 1-ethyl-3-(3-dimethylaminopropyl)carbodiimide hydrochloride (EDC, PIERCE) dissolved in cooled ultrapure water was added into a final concentration of 0.2 M, and the mixture was shaken at room temperature for 30 minutes. Then, the magnetic beads were washed with cooled ultrapure water (210 μL) and then with 50 mM MES buffer (pH 5.0, 210 μL).
To the magnetic beads, 1 mg/mL human serum protein (CHEMICON, 210 μL) dialyzed with 50 mM MES buffer (pH 5.0) was added. The mixture was shaken at room temperature for 30 minutes to covalently bind the human serum protein to the magnetic beads. The magnetic beads were collected with a magnet to remove the supernatant. The unreacted active groups on the beads were eliminated with 50 mM tris buffer (pH 7.0, 210 μL), and then the magnetic beads were blocked with a PBS buffer (420 μL) containing 0.5% BSA and 0.1% Tween 20. The magnetic beads were suspended in a PBS buffer (210 μL) to obtain human serum protein-immobilized magnetic beads.
The magnetic beads (7 μL) and 0.56 μg/mL of each low-pI TM2 (100 μL) were mixed for reaction at room temperature for 1 hour. The magnetic beads were collected with a magnetic, and the supernatant was removed. After washing with 20 mM potassium phosphate buffer (500 μL) containing 500 mM sodium chloride, the magnetic beads were mixed with 20 μL of 2×SDS sample buffer (250 mM Tris-HCl, pH 6.8, 20% 2-mercaptoethanol, 20% SDS, 20% glycerol), followed by heating at 95° C. for 20 minutes to dissociate the low-pI TM2 from the magnetic beads.
This sample was subjected to SDS-PAGE and then western blotting analysis to determine the amount of the low-pI TM2. Anti-tamavidin 2 rabbit antibody and alkaline phosphatase-labeled anti-rabbit IgG goat antibody were used as the primary antibody and the secondary antibody, respectively. The bands were detected with Alkaline Phosphatase Substrate Kit II <VECTOR Black> (VECTRO) and were quantified with Las-3000 (FUJIFILM).

The test system of series [4] is human serum protein. Description: Non-specific adsorption of serum protein to HALU TM2-immobilized magnetic beads. The format is binding. To be noted: human serum diluted 800 times, anti-human IgG detection. As for the experimental part: In this Example, non-specific adsorption of serum protein to HALU TM2-immobilized magnetic beads was investigated.
TM2 D40NR104E and TM2 D40NR104EK141E were bonded covalently to magnetic beads (Dynabeads M-270 Carboxylic Acid, Dynal) by the process described in paragraph 1-9) of Example 1, and the amount of human serum protein adsorbed to the beads was measured. The amount of each HALU TM2 immobilized to the magnetic beads was adjusted to 10 μg/100 μL beads. Human serum (CHEMICON) was diluted 800 times with a PBS buffer, and the HALU TM2-immobilized magnetic beads (50 μL) to which a certain amount of protein was immobilized were added to the diluted human serum, followed by mixing by turning the tube containing the beads upside down at room temperature for 15 minutes. The magnetic beads were washed with a PBS buffer containing 0.1% Tween 20 (PBST, 500 μL) four times and were then subjected to antigen-antibody reaction at room temperature for 15 minutes with HRP-labeled anti-human IgG mouse antibody (100 μL) diluted 5000 times with PBST containing 0.5% BSA. Subsequently, the beads were washed with PBST (500 μL) five times, followed by color development with 1-Step Ultra TMB-ELISA (100 μL). After termination of the color development with 2M sulfuric acid (100 μL), the magnetic beads were collected with a magnet. The absorbance at 450 nm of the supernatant was measured with an Infinite 200 microplate reader.

The nature of series [5]: Biotin-binding test (Biacore 3000, biotin-LC-BSA immobilized). To be noted: Biotin-BSA (22.4 Å). As for the experimental part:
High-purity BSA (Sigma, 2 mg) and NHS-LC-biotin (Pierce, 1 mg) were dissolved in 50 mM sodium borate (pH 8.0, 1 mL) and were incubated at 4° C. for 2 hours. The solution was put into a dialysis tube (MWCO 6-8,000) and was dialyzed with 50 mM sodium carbonate (pH 6.7) at 4° C. overnight. The resulting biotin-LC-BSA conjugate (MW: 67 kDa, 30 μM) was used as a ligand for a Biacore (registered trademark) biosensor.
Biotin-LC-BSA and BSA serving as a negative control were immobilized on CM5 sensor chips by amine coupling method. The amount for immobilization was adjusted to about 200 RU. The chips to which BSA was immobilized were disposed in flow cells 1 and 3, while the chips to which biotin-LC-BSA was immobilized were disposed in flow cells 2 and 4.
Accordingly, seven step measurement (3.125, 6.25, […], 25, 50, 100, and 200 nM) was conducted from the lowest concentration, without recycling steps. The data of BSA as reference was deducted from the data of BSA-LC-biotin. The measurement was performed at 25° C. The resulting sensorgrams were subjected to reaction kinetics analysis using analysis software BIAevaluation ver. 4.1 with a 1:1 binding model to calculate the binding rate constant (ka) and the dissociation rate constant (kd). The dissociation constant (KD) was determined from kd/ka. In the case where no recycling step is employed, the Rmax (maximum amount of binding analyte) decreases at each measurement. Accordingly, in the analysis, the Rmax was calculated by conducting local fitting for each concentration, and only the data of analyte concentrations that were approximated to the 1:1 binding model was employed.
TM2 and HALU TM2 used as analytes were prepared by purification with 2-iminobiotin agarose in accordance with a common method and dialysis with 20MM KPi (pH 7) overnight. The analytes were each adjusted to about 50 μg/mL in 10 mM acetate buffer (pH 5, Biacore).
The immobilization of the ligand and measurement and analysis of specific interaction with the analytes were conducted as in paragraph 2-7-2).

With streptavidin [reference compound], the “Thermal stability (temp. at which 50% of protein was lost)” value in series [1] turned out to be 70 °C.

B1: TM2 R104EK141E: TM2 mutant, arginine 104 and lysine 141 each replaced with glutamic acid; SEQ ID NO: 16 (protein)
chain: MSDVQSSLTGTWYNELNSKMELTANKDGTLTGKYLSKVGDVYVPYPLSGRYNLQPPAGQGVALGWAVSWENSKIHSATTWSGQFFSESSPVILTQWLLSSSTAEGDVWESTLVGNDSFTKTAPTEQQIAHAQLHCRAPRLE
modifications: Synthetic TM2 R104EK141E
Consider B1, for which the “Non-specific binding of DNA” value in the series with Salmon sperm DNA is recorded as “lower than the detection limit”. In addition, the pI observed in series [2] is reported as 6.2. Also, in the series on human serum protein [3] (FIG. 1), the “decrease of adsorption to human serum protein compared to the wild type TM2” value is given as 70% and the “non-specific binding to human serum protein compared to TM2” value is on record as “significantly low”. Also, the “Non-specific binding of serum protein (%)” value in the series with human serum protein [3] (wild type TM2 = 100) worked out at 25%.

B2: TM2 D40NR104E: TM2 mutant having mutation of D40N and R104E; SEQ ID NO: 22 (protein)
chain: MSDVQSSLTGTWYNELNSKMELTANKDGTLTGKYLSKVGNVYVPYPLSGRYNLQPPAGQGVALGWAVSWENSKIHSATTWSGQFFSESSPVILTQWLLSSSTAEGDVWESTLVGNDSFTKTAPTEQQIAHAQLHCRAPRLK
modifications: Synthetic TM2 D40NR104E
As to B2, the “Non-specific binding to serum protein (A450)” value in the series on human serum protein [4] was “low”; in the series on human serum protein [4] (listed as D40NR104E), 0.56. Also, the “Thermal stability (temp. at which 50% of protein was lost)” value in series [1] was 78 °C. The pI observed in series [2] came to 8.9. Moreover, the ka in series [5] is given as 1.4 × 10^6. In addition, the kd entry in series [5] (values in parentheses) is listed as “(2.9 × 10^−9)”.
